This is an account of results in patent publication US20080261903.

Series [1] deals with T1, MKK4, P45985.
T1 chain: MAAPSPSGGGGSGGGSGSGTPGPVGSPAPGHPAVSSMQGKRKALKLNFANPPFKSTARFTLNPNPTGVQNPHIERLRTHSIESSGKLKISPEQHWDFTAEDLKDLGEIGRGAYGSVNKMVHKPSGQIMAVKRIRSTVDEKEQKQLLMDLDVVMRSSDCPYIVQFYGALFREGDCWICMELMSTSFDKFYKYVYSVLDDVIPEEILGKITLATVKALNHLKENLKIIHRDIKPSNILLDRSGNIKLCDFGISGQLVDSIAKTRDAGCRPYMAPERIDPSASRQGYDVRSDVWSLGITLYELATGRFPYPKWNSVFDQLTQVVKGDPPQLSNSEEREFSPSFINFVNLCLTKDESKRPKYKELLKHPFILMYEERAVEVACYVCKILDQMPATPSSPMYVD

Series [2] has as its target T2, MKK6, P52564.
T2 chain: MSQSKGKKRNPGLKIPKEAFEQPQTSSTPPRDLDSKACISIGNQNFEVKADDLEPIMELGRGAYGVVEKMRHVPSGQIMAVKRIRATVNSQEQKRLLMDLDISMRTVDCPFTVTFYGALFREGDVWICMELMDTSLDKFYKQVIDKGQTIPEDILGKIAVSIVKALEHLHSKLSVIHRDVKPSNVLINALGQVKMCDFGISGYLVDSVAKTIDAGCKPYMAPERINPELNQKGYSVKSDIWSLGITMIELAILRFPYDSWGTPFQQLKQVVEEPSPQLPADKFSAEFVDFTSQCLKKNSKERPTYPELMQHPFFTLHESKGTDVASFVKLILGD

The target of series [3] is T3, MEK2, P36507.
T3 chain: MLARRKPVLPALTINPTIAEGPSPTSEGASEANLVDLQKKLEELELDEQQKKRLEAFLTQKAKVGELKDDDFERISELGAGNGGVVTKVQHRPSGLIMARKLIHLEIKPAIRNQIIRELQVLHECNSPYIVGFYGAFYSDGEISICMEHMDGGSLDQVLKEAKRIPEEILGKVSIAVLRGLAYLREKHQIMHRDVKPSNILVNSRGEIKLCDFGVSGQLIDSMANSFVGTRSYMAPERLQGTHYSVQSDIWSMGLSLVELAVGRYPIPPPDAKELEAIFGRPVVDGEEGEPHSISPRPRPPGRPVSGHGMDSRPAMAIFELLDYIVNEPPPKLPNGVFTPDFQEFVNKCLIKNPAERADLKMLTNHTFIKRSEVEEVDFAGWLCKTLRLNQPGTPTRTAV

B1: FLAG-tagged RC Kinase polypeptide (human RC Kinase variant 1, SEQ ID NO: 7, with a FLAG epitope at its amino terminal) (protein)
chain: SKKQQLLDILMSSMPKPERHAESLLDICHDTNSSPTDLMTVTKNQNIILQSISRSEEFDQDGDCSHSTLVNEEEDPSGGRQDWQPRTEEFSTSHMKYSGRSIKFLLPPLSLLPTRSGVLTIPQNHKFPKEKERNIPSLTSFVPKLSVSVRQSDELSPSNEPPGALVKSLMDPTLRSSDGFIWSRNMCSFPKTNHHRQCLEKEENWKSKEIEECNKIEITHFEKGQSLVSFENLKEGNIPAVREEDIDCHGSKTRKPEEENSQYLSSRKNESSVAKNYEQDPEIVCTIPSKFQETQHSEITPSQDEEMRNNKAASKRVSLHKNEAMEPNNILEECTVLKSLSSVVFDDPIDKLPEGCSSMETNIKISIAERAKPEMSRMVPLIHITFPVDGSPKEPVIAKPSLQTRKGTIHNNHSVNIPVHQENDKHKMNSHRSKLDSKTKTSKKTPQNFVISTEGPIKPTMHKTSIKTQIFPALGLVDPRPWQLPRFQKKMPQIAKKQSTHRTQKPKKQSFPCICKNPGTQKSCVPLSVQPTEPRLNYLDLKYSDMFKEINSTANGPGIYEMFGTPVYCHVRETERDENTYYREICSAPSGRRITNKCRSSHSERKSNIRTRLSQKKTHMKCPKTSFGIKQEHKVLISKEKSSKAVHSNLHDIENGDGISEPDWQIKSSGNEFLSSKDEIHPMNLAQTPEQSMKQNEFPPVSDLSIVEEVSMEESTGDRDISNNQILTTSLRDLQELEELHHQIPFIPSEDSWAVPSEKNSNKYVQQEKQNTASLSKVNASRILTNDLEFDSVSDHSKTLTNFSFQAKQESASSQTYQYWVHYLDHDSLANKSITYQMFGKTLSGTNSISQEIMDSVNNEELTDELLGCLAAELLALDEKDNNSCQKMANETDPENLNLVLRWRGSTPKEMGRETTKVKIQRHSSGLRIYDREEKFLISNEKKIFSENSLKSEEPILWTKGEILGKGAYGTVYCGLTSQGQLIAVKQVALDTSNKLAAEKEYRKLQEEVDLLKALKHVNIVAYLGTCLQENTVSIFMEFVPGGSISSIINRFGPLPEMVFCKYTKQILQGVAYLHENCVVHRDIKGNNVMLMPTGIIKLIDFGCARRLAWAGLNGTHSDMLKSMHGTPYWMAPEVINESGYGRKSDIWSIGCTVFEMATGKPPLASMDRMAAMFYIGAHRGLMPPLPDHFSENAADFVRMCLTRDQHERPSALQLLKHSFLERSH
Regarding B1, the “RC Kinase activity (in vitro kinase assay with labelled ATP, SDS-PAGE, autoradiography)” value (“RC Kinase activity” for short) is “it has the ability to phosphorylate other RC Kinase polypeptides” and the “phosphorylating activity (in vitro kinase assay, autoradiography after SDS-PAGE)” value (“phosphorylating activity” for short) is recorded as “RC Kinase was able to phosphorylate itself”. Further, in series [1], the “RC Kinase activity” value was “it has the ability to phosphorylate other RC Kinase polypeptides, MKK4, and MKK6”; the “phosphorylating activity” value was “RC Kinase was able to phosphorylate itself and MKK4”. Besides, in series [2], the “RC Kinase activity” value is “it has the ability to phosphorylate other RC Kinase polypeptides, MKK4, and MKK6”; the “phosphorylating activity” value is listed as “showed only minor activity against MKK6”. For the same protein, the “phosphorylating activity” value in series [3] is given as “no detectable activity against MEK2”.
